The target in assay [1] is T1, rat calcitonin receptor (rat, UniProt P32214 25-516).
T1 construct: whole, on cells; Cell membranes of transiently transfected BHK tk'ts 13 cells (Assay VIII); also called rCTR; rCT
T1 sequence (looked up): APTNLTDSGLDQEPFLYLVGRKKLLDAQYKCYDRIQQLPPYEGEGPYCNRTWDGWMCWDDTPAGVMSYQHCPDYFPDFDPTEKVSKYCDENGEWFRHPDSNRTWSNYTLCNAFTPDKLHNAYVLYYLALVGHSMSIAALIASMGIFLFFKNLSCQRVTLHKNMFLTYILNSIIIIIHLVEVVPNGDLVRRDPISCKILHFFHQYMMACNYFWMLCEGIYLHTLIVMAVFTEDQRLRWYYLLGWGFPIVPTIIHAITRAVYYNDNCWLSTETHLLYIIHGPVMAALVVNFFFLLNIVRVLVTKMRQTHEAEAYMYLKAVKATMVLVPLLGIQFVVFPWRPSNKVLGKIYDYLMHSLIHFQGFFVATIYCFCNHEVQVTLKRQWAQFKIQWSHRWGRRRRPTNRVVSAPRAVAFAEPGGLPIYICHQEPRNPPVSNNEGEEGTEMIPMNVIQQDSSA
Put plainly: ratio IC50 rat calcitonin receptor / IC50 rat amylin receptor.

Assay [2] addresses T2, rat amylin receptor (rat calcitonin receptor + rat RAMP 3) (rat, UniProt P32214 25-516; Q9JJ73 23-147).
T2 construct: whole, on cells; Cell membranes of transiently transfected BHK tk'ts 13 cells (Assay VI); also called rAmylin-R; rat amylin 3(a) receptor
T2 sequence (looked up) 1: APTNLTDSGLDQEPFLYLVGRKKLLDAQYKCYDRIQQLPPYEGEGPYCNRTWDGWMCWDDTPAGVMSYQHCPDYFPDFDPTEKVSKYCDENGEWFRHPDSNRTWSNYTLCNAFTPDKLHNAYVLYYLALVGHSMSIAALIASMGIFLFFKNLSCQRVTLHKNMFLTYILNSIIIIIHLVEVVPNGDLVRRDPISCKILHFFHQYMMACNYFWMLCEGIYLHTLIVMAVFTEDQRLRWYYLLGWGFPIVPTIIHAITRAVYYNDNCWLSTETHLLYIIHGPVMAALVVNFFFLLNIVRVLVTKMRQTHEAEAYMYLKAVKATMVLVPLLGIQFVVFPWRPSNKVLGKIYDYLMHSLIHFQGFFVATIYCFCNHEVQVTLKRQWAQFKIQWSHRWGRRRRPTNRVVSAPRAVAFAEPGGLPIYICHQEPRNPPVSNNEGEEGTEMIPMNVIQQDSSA
T2 sequence (looked up) 2: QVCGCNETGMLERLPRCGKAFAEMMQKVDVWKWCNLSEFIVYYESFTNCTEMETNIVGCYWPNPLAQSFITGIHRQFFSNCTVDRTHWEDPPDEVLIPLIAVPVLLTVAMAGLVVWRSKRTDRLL
Put plainly: SPA competition vs 125I-rat amylin, membranes with rat CTR + rat RAMP3 (Assay VI).

In assay [3] the target is T1, rat calcitonin receptor. The assay is described as follows: SPA competition vs 125I-calcitonin, membranes with rat CTR (Assay VIII).

Numbered stars: 1 amine (or outer) side, 2 acyl side, 3 side chain; on linkers, the order of the positions; unused ones are H or OH. Bridge positions count the residues as written; N and C are the ends. Side chains are listed from the residue outwards. Ends that are not written are not given here. * marks the point of attachment. C20 diacid = O=C(O)CCCCCCCCCCCCCCCCCCC(=O)*; γGlu = O=C(O)[C@H](CCC(=O)[*:2])N[*:1]; AEEA = NCCOCCOCC(=O)O

The IC50 is the concentration at which inhibition is half-maximal.

B1: N^ε1-[2-[2-[2-[[(4S)-4-carboxy-4-(19-carboxynonadecanoylamino)butanoyl]amino]ethoxy]ethoxy]acetyl]-[Arg17,Pro21,Pro27,Pro29,Pro34]-h-amylin (peptide)
peptide: K([AEEA-γGlu-C20 diacid])CNTATCATQRLANFLRHSSPNFGAIPSPTNVGPNTY-NH2
modifications: disulfide 2-7; N-terminus assumed
SMILES: CC[C@H](C)[C@H](NC(=O)[C@H](C)NC(=O)CNC(=O)[C@H](Cc1ccccc1)NC(=O)[C@H](CC(N)=O)NC(=O)[C@@H]1CCCN1C(=O)[C@H](CO)NC(=O)[C@H](CO)NC(=O)[C@H](Cc1c[nH]cn1)NC(=O)[C@H](CCCNC(=N)N)NC(=O)[C@H](CC(C)C)NC(=O)[C@H](Cc1ccccc1)NC(=O)[C@H](CC(N)=O)NC(=O)[C@H](C)NC(=O)[C@H](CC(C)C)NC(=O)[C@H](CCCNC(=N)N)NC(=O)[C@H](CCC(N)=O)NC(=O)[C@@H](NC(=O)[C@H](C)NC(=O)[C@@H]1CSSC[C@H](NC(=O)[C@@H](N)CCCCNC(=O)COCCOCCNC(=O)CC[C@H](NC(=O)CCCCCCCCCCCCCCCCCCC(=O)O)C(=O)O)C(=O)N[C@@H](CC(N)=O)C(=O)N[C@@H]([C@@H](C)O)C(=O)N[C@@H](C)C(=O)N[C@@H]([C@@H](C)O)C(=O)N1)[C@@H](C)O)C(=O)N1CCC[C@H]1C(=O)N[C@@H](CO)C(=O)N1CCC[C@H]1C(=O)N[C@H](C(=O)N[C@@H](CC(N)=O)C(=O)N[C@H](C(=O)NCC(=O)N1CCC[C@H]1C(=O)N[C@@H](CC(N)=O)C(=O)N[C@H](C(=O)N[C@@H](Cc1ccc(O)cc1)C(N)=O)[C@@H](C)O)C(C)C)[C@@H](C)O
notes: Acylated analogue of human amylin; also called compound 56
In the case of B1, the “Ratio rCT/rAmylin binding” value with rat calcitonin receptor [1] worked out at 131. In addition, the IC50 in assay [2] amounted to 0.04 nM; with rat calcitonin receptor [3], 5.26 nM.

B2: N^ε1-[2-[2-[2-[[(4S)-4-carboxy-4-(19-carboxynonadecanoylamino)butanoyl]amino]ethoxy]ethoxy]acetyl]-[Arg17,Pro21,Pro27,Pro34]-h-amylin (peptide)
peptide: K([AEEA-γGlu-C20 diacid])CNTATCATQRLANFLRHSSPNFGAIPSSTNVGPNTY-NH2
modifications: disulfide 2-7; N-terminus assumed
SMILES: CC[C@H](C)[C@H](NC(=O)[C@H](C)NC(=O)CNC(=O)[C@H](Cc1ccccc1)NC(=O)[C@H](CC(N)=O)NC(=O)[C@@H]1CCCN1C(=O)[C@H](CO)NC(=O)[C@H](CO)NC(=O)[C@H](Cc1c[nH]cn1)NC(=O)[C@H](CCCNC(=N)N)NC(=O)[C@H](CC(C)C)NC(=O)[C@H](Cc1ccccc1)NC(=O)[C@H](CC(N)=O)NC(=O)[C@H](C)NC(=O)[C@H](CC(C)C)NC(=O)[C@H](CCCNC(=N)N)NC(=O)[C@H](CCC(N)=O)NC(=O)[C@@H](NC(=O)[C@H](C)NC(=O)[C@@H]1CSSC[C@H](NC(=O)[C@@H](N)CCCCNC(=O)COCCOCCNC(=O)CC[C@H](NC(=O)CCCCCCCCCCCCCCCCCCC(=O)O)C(=O)O)C(=O)N[C@@H](CC(N)=O)C(=O)N[C@@H]([C@@H](C)O)C(=O)N[C@@H](C)C(=O)N[C@@H]([C@@H](C)O)C(=O)N1)[C@@H](C)O)C(=O)N1CCC[C@H]1C(=O)N[C@@H](CO)C(=O)N[C@@H](CO)C(=O)N[C@H](C(=O)N[C@@H](CC(N)=O)C(=O)N[C@H](C(=O)NCC(=O)N1CCC[C@H]1C(=O)N[C@@H](CC(N)=O)C(=O)N[C@H](C(=O)N[C@@H](Cc1ccc(O)cc1)C(N)=O)[C@@H](C)O)C(C)C)[C@@H](C)O
notes: Acylated analogue of human amylin; also called compound 50
Regarding B2, in the assay with rat calcitonin receptor [1], the “Ratio rCT/rAmylin binding” value was determined as 81.7. Also, the IC50 is 0.069 nM in assay [2] and 5.63 nM with rat calcitonin receptor [3].

B3: N^ε1-[2-[2-[2-[[(4S)-4-carboxy-4-(19-carboxynonadecanoylamino)butanoyl]amino]ethoxy]ethoxy]acetyl]-[Arg17,Pro21,Pro27,Pro31,His35]-h-amylin (peptide)
peptide: K([AEEA-γGlu-C20 diacid])CNTATCATQRLANFLRHSSPNFGAIPSSTPVGSHTY-NH2
modifications: disulfide 2-7; N-terminus assumed
SMILES: CC[C@H](C)[C@H](NC(=O)[C@H](C)NC(=O)CNC(=O)[C@H](Cc1ccccc1)NC(=O)[C@H](CC(N)=O)NC(=O)[C@@H]1CCCN1C(=O)[C@H](CO)NC(=O)[C@H](CO)NC(=O)[C@H](Cc1c[nH]cn1)NC(=O)[C@H](CCCNC(=N)N)NC(=O)[C@H](CC(C)C)NC(=O)[C@H](Cc1ccccc1)NC(=O)[C@H](CC(N)=O)NC(=O)[C@H](C)NC(=O)[C@H](CC(C)C)NC(=O)[C@H](CCCNC(=N)N)NC(=O)[C@H](CCC(N)=O)NC(=O)[C@@H](NC(=O)[C@H](C)NC(=O)[C@@H]1CSSC[C@H](NC(=O)[C@@H](N)CCCCNC(=O)COCCOCCNC(=O)CC[C@H](NC(=O)CCCCCCCCCCCCCCCCCCC(=O)O)C(=O)O)C(=O)N[C@@H](CC(N)=O)C(=O)N[C@@H]([C@@H](C)O)C(=O)N[C@@H](C)C(=O)N[C@@H]([C@@H](C)O)C(=O)N1)[C@@H](C)O)C(=O)N1CCC[C@H]1C(=O)N[C@@H](CO)C(=O)N[C@@H](CO)C(=O)N[C@H](C(=O)N1CCC[C@H]1C(=O)N[C@H](C(=O)NCC(=O)N[C@@H](CO)C(=O)N[C@@H](Cc1c[nH]cn1)C(=O)N[C@H](C(=O)N[C@@H](Cc1ccc(O)cc1)C(N)=O)[C@@H](C)O)C(C)C)[C@@H](C)O
notes: Acylated analogue of human amylin; also called compound 57
Regarding B3, in the assay with rat calcitonin receptor [1], the “Ratio rCT/rAmylin binding” value was found to be 135. Further, the IC50 in assay [2] was found to be 0.181 nM; in the assay with rat calcitonin receptor [3] it was 24.4 nM.

B4: N^ε1-[2-[2-[2-[[(4S)-4-carboxy-4-(19-carboxynonadecanoylamino)butanoyl]amino]ethoxy]ethoxy]acetyl]-[Arg17,Pro21,Pro27,Pro34,His35]-h-amylin (peptide)
peptide: K([AEEA-γGlu-C20 diacid])CNTATCATQRLANFLRHSSPNFGAIPSSTNVGPHTY-NH2
modifications: disulfide 2-7; N-terminus assumed
SMILES: CC[C@H](C)[C@H](NC(=O)[C@H](C)NC(=O)CNC(=O)[C@H](Cc1ccccc1)NC(=O)[C@H](CC(N)=O)NC(=O)[C@@H]1CCCN1C(=O)[C@H](CO)NC(=O)[C@H](CO)NC(=O)[C@H](Cc1c[nH]cn1)NC(=O)[C@H](CCCNC(=N)N)NC(=O)[C@H](CC(C)C)NC(=O)[C@H](Cc1ccccc1)NC(=O)[C@H](CC(N)=O)NC(=O)[C@H](C)NC(=O)[C@H](CC(C)C)NC(=O)[C@H](CCCNC(=N)N)NC(=O)[C@H](CCC(N)=O)NC(=O)[C@@H](NC(=O)[C@H](C)NC(=O)[C@@H]1CSSC[C@H](NC(=O)[C@@H](N)CCCCNC(=O)COCCOCCNC(=O)CC[C@H](NC(=O)CCCCCCCCCCCCCCCCCCC(=O)O)C(=O)O)C(=O)N[C@@H](CC(N)=O)C(=O)N[C@@H]([C@@H](C)O)C(=O)N[C@@H](C)C(=O)N[C@@H]([C@@H](C)O)C(=O)N1)[C@@H](C)O)C(=O)N1CCC[C@H]1C(=O)N[C@@H](CO)C(=O)N[C@@H](CO)C(=O)N[C@H](C(=O)N[C@@H](CC(N)=O)C(=O)N[C@H](C(=O)NCC(=O)N1CCC[C@H]1C(=O)N[C@@H](Cc1c[nH]cn1)C(=O)N[C@H](C(=O)N[C@@H](Cc1ccc(O)cc1)C(N)=O)[C@@H](C)O)C(C)C)[C@@H](C)O
notes: Acylated analogue of human amylin; also called compound 58
With B4, in the assay with rat calcitonin receptor [1], the “Ratio rCT/rAmylin binding” value was found to be 76.6. The IC50 in assay [2] amounted to 0.135 nM; with rat calcitonin receptor [3], 10.3 nM.

The values are drawn from patent publication US20140087995A1 (published 2014).
